From paper PMC2800238

Molecular target: nsp12 (RdRp) (SARS-CoV Frankfurt-1, UniProt P0C6X7 4370-5301)
Test: EMSA

B1: SAV557R/SAV481R primer-template duplex (dsRNA)
RNA 1: GCUAUGUGAGAUUAAGUUAU
RNA 2: UUUUUUUUUUAUAACUUAAUCUCACAUAGC
- Kd: 130 nM

Binder: GCUAUGUGAGAUUAAGUUAU (ssRNA) [SAV557R ssRNA]
- Kd: 100 nM
